The results in this text go back to patent US20240100180A1 (SOTIO BIOTECH A S, published 2024).

Assay [1] has as its target T1, human CLDN18.1 (Claudin 18.1) expressed on cells (human, UniProt P56856 1-261).
T1 construct: whole, on cells; Isoform 1 (lung isoform) of CLDN18; also called huCLDN18.1; hCLDN18.1
Put plainly: flow cytometry, L11 cells overexpressing huCLDN18.1 (FIG. 4). A general note: A flow cytometer gives signals particle by particle.
Protocol: The cells were stained on ice for 30 min using the antibodies at 2 μg/ml and, upon washing in PBS/2% FCS, stained with anti-human IgG (Fc gamma-specific) PE goat antibody (eBioscience) as secondary antibody for 30 min on ice.

Assay [2] has as its target T2, human CLDN18.2 (Claudin 18.2) expressed on cells (human).
T2 construct: also called huCLDN18.2; hCLDN18.2
The experiment in a line: % positive tumor cells divided by % positive healthy stomach cells, flow cytometry, average.
Protocol: (§1) Two Balb/c mice were implanted subcutaneously with 1×10⁶ A549 cells expressing CLDN18.2 in 100 μl of 50% Matrigel and tumors growth was monitored over a few weeks until the tumor reached the desired size between 150-450 mm³. Healthy stomach tissue and tumor tissue was collected for FC analysis. The collected tissues were cut into small pieces and digested with the Miltenyi tumor dissociation kit (MACS Miltenyi Biotec, Germany). Tissue pieces were incubated with dissociation buffer (prepared according to the manufacturer instruction) in 6 well plates for 30 min in 37° C. under permanent gentle rocking motion. Samples were resuspended and strained through a 70 μm cell strainer (Corning, USA) followed by a wash with 20 ml FC buffer (PBS+2% FBS). Cell suspensions were centrifuged (5 min at 400 g for 4° C.) and the supernatants were discarded. If needed, cell suspensions were passed through a strainer and centrifuged repeatedly and pellets resuspended in 5 ml of red blood cell lysis buffer (Biolegend, USA), incubated on ice for 4 min. After incubation, 25 ml of PBS was added, and the suspensions were centrifuged again (5 min at 400 g for 4° C.). Pellets were resuspended in FC buffer (0.5-3 ml based on pellets). Equal number of cells were transferred into 96 well plates and further processed for FC analysis. […]

In assay [3] the target is T2, human CLDN18.2 (Claudin 18.2) expressed …. Put plainly: % positive tumor cells divided by % positive healthy stomach cells, flow cytometry, mouse 1.
Protocol: as §1
The target is the same in assay [4]. The experiment in a line: % positive tumor cells divided by % positive healthy stomach cells, flow cytometry, mouse 2.
Protocol: as §1
The target is the same in assay [5]. Put plainly: cell-based or functional assay.

Where a chain is given by its changes, count along the chain named.

T1 sequence (P56856 whole entry, canonical isoform): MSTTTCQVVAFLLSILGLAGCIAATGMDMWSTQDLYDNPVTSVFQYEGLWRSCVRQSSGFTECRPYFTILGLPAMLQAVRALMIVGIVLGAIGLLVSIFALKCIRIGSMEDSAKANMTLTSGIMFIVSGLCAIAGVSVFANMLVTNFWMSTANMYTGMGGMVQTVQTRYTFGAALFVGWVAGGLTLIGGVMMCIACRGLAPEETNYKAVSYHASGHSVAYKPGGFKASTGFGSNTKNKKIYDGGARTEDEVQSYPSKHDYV

B1: cCl1-1 (antibody, V domains shown)
VH: QIQLVQSGPELKKPGESVKISCKASGYTFTDYAMHWVKQAPGKGLKWMGWINTYTGKPTYADDFKGRFVFSLEASASTANLQISNLKNEDTATYFCARAVFYGYTMDAWGQGTSVTVSS
VL: DIQMTQSPASLSASLGETISIACRASEDIYSNLAWYQQKSGKSPQLLIFSVKRLQDGVPSRFSGSGSGTQYSLKISGMQPEDEGDYFCLQGSNFPLTFGSGTKLEIK
notes: Chimeric antibody from rat hybridoma, detected with anti-human IgG
Consider B1, for which the binding result in assay [1] was “no binding (tested: 2 µg/ml)”. Further, the Ratio tumor/stomach in assay [2] is 74.3; in assay [3] it was 92.5; in assay [4] it was 50.

B2: cCl1-2 (antibody, V domains shown)
VH: B1 VH with A24T, A40G, L45M, T53A, F70L, F101Y, T116I
VL: B1 VL with A22E, A25T, L33F, Y36F, F49Y, K52N, N93K
notes: as for B1
As to B2, in assay [1], the binding result is “no binding (tested: 2 µg/ml)”.

B3: cCl1-3 (antibody, V domains shown)
VH: B1 VH with H35Y, A40V, K46R
VL: B1 VL with A25T, S50A, V51I, N93K
notes: as for B1
On to B3, for which the binding result in assay [1] is reported as “no binding (tested: 2 µg/ml)”.

B4: hCL1a-LC-G2-PNU (antibody, human IgG1, kappa)
heavy: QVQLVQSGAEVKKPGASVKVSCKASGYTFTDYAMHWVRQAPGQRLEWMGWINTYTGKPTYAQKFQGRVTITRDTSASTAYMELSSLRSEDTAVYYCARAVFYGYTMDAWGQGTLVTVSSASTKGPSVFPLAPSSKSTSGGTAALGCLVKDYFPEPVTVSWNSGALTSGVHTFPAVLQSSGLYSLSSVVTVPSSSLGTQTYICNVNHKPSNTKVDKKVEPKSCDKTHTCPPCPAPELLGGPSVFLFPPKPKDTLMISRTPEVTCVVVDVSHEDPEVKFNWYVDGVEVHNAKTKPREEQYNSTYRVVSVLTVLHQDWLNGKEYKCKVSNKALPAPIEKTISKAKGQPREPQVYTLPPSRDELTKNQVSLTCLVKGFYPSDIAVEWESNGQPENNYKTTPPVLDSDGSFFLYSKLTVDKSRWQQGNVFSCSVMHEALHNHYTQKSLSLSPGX
light: DIQMTQSPSSLSASVGDRVTITCRASEDIYSNLAWYQQKPGKAPKLLIFSVKRLQDGVPSRFSGSGSGTDFTLTISSLQPEDFATYYCLQGSNFPLTFGQGTKVEIKRTVAAPSVFIFPPSDEQLKSGTASVVCLLNNFYPREAKVQWKVDNALQSGNSQESVTEQDSKDSTYSLSSTLTLSKADYEKHKVYACEVTHQGLSSPVTKSFNRGECGGGGSLPQTGG
modifications: PNU-159682 linked through ethylenediamine to the C-terminal Gly of the GGGGSLPQTGG tag
B4: in assay [5], the “EC50 of in-vitro cytotoxicity, A549-CLDN18.2 cells (head of c2)” value (shortened to “EC50 of in-vitro cytotoxicity”) is 4.8 ng/mL.

B5: hCL1i-LC-G2-PNU (antibody, human IgG1, kappa)
heavy: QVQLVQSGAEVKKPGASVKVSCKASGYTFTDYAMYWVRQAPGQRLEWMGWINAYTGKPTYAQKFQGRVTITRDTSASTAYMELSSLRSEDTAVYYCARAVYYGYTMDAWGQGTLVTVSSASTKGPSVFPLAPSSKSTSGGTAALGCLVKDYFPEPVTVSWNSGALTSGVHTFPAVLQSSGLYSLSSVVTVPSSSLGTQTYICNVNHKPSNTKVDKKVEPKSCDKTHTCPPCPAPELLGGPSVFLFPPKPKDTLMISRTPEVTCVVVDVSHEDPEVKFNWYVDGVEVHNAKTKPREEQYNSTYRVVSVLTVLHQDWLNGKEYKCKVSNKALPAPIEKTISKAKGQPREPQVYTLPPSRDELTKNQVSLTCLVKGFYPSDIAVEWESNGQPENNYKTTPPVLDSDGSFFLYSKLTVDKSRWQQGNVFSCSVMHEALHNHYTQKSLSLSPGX
light: B4 light
modifications: PNU-159682 linked through ethylenediamine to the C-terminal Gly of the GGGGSLPQTGG tag
In the case of B5, the “EC50 of in-vitro cytotoxicity” value in assay [5] amounted to 3.8 ng/mL.

B6: hCL1f-LC-G2-PNU (antibody, human IgG1, kappa)
heavy: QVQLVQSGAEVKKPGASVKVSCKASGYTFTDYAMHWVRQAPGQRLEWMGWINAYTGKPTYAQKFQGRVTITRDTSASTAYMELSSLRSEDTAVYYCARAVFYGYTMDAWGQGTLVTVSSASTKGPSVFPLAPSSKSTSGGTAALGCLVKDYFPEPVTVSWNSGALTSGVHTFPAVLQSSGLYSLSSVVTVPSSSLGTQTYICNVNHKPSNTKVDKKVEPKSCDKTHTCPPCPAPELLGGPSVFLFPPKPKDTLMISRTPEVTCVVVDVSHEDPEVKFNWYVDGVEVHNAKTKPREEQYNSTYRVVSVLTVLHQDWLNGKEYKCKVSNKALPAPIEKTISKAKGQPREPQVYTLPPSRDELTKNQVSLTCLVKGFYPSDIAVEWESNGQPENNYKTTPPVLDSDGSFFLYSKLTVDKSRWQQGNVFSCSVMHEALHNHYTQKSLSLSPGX
light: B4 light with F49Y
modifications: PNU-159682 linked through ethylenediamine to the C-terminal Gly of the GGGGSLPQTGG tag
As for B6, the “EC50 of in-vitro cytotoxicity” value in assay [5] was 14 ng/mL.

B7: hCL1e-LC-G2-PNU (antibody, human IgG1, kappa)
heavy: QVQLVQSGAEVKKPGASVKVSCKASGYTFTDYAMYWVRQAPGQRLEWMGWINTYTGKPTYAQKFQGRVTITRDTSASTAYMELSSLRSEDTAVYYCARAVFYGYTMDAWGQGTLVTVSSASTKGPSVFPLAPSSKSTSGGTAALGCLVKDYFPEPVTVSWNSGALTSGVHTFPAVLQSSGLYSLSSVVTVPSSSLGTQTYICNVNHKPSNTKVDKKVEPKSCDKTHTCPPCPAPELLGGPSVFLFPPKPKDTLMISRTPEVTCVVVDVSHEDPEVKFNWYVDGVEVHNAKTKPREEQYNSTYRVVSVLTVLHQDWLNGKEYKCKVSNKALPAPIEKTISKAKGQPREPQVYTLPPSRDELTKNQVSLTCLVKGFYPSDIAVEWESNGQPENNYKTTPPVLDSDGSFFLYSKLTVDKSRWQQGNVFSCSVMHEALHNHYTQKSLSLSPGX
light: B4 light
modifications: PNU-159682 linked through ethylenediamine to the C-terminal Gly of the GGGGSLPQTGG tag
As for B7, the “EC50 of in-vitro cytotoxicity” value in assay [5] is 4.3 ng/mL.

B8: hCL1g-LC-G2-PNU (antibody, human IgG1, kappa)
heavy: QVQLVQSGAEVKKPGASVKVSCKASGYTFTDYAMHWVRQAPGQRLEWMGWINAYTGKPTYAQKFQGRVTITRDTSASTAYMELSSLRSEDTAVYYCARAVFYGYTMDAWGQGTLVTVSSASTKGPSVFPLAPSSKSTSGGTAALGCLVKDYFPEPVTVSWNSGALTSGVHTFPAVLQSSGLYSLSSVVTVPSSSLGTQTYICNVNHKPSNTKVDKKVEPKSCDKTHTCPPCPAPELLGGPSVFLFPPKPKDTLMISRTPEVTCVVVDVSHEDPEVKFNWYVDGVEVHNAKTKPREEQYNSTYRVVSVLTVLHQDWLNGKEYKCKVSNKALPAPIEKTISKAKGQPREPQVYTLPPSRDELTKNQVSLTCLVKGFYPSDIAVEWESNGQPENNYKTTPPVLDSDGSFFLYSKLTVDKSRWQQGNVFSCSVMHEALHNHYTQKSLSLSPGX
light: B4 light with A25T, L33F, F49Y, K52N, N93K
modifications: PNU-159682 linked through ethylenediamine to the C-terminal Gly of the GGGGSLPQTGG tag
As for B8, in assay [5], the “EC50 of in-vitro cytotoxicity” value turned out to be 70.7 ng/mL.

B9: hCL1j-LC-G2-PNU (antibody, human IgG1, kappa)
heavy: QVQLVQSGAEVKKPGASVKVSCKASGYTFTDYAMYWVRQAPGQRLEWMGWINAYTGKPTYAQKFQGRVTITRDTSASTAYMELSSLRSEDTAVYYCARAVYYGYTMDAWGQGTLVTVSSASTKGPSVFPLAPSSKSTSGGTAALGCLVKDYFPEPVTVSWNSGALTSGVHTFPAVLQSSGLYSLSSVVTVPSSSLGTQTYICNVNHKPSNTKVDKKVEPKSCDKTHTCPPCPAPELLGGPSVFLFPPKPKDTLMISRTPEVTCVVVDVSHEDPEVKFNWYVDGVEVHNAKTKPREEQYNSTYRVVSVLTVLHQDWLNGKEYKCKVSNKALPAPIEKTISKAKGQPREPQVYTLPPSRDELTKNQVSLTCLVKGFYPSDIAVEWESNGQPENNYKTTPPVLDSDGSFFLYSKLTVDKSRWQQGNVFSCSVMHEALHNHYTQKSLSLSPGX
light: B4 light with A25T, S50A, V51I, N93K
modifications: PNU-159682 linked through ethylenediamine to the C-terminal Gly of the GGGGSLPQTGG tag
With B9, the “EC50 of in-vitro cytotoxicity” value in assay [5] worked out at 5.3 ng/mL.

B10: hCL1b-LC-G2-PNU (antibody, human IgG1, kappa)
heavy: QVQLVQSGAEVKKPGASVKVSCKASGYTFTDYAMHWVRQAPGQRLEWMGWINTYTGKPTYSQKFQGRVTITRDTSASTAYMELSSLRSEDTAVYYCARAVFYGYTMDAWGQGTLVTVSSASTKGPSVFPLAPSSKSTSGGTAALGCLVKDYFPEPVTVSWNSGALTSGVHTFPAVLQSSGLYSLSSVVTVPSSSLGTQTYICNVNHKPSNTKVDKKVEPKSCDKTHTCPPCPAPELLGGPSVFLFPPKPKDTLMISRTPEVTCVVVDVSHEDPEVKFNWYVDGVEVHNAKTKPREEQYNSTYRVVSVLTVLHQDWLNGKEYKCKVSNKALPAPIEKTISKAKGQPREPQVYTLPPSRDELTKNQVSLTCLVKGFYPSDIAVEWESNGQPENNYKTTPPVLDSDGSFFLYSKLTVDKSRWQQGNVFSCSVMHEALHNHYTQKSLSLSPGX
light: B4 light
modifications: PNU-159682 linked through ethylenediamine to the C-terminal Gly of the GGGGSLPQTGG tag
Consider B10, for which the “EC50 of in-vitro cytotoxicity” value in assay [5] worked out at 6.4 ng/mL.

B11: hCL1c-LC-G2-PNU (antibody, human IgG1, kappa)
heavy: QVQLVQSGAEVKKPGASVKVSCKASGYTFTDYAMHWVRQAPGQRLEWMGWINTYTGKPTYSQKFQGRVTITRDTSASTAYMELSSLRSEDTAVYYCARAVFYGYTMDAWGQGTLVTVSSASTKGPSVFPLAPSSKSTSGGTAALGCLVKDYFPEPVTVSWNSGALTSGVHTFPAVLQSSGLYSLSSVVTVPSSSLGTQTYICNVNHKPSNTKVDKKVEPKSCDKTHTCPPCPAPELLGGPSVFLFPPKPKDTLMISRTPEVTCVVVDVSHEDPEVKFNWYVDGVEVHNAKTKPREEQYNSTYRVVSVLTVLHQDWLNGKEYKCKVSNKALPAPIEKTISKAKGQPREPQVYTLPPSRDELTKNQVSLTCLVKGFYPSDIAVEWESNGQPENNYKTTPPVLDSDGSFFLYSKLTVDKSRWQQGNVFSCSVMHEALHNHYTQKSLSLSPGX
light: B4 light with A25T, S50A, V51I, N93K
modifications: PNU-159682 linked through ethylenediamine to the C-terminal Gly of the GGGGSLPQTGG tag
With B11, the “EC50 of in-vitro cytotoxicity” value in assay [5] was found to be 30 ng/mL.

B12: hCL1h-LC-G2-PNU (antibody, human IgG1, kappa)
heavy: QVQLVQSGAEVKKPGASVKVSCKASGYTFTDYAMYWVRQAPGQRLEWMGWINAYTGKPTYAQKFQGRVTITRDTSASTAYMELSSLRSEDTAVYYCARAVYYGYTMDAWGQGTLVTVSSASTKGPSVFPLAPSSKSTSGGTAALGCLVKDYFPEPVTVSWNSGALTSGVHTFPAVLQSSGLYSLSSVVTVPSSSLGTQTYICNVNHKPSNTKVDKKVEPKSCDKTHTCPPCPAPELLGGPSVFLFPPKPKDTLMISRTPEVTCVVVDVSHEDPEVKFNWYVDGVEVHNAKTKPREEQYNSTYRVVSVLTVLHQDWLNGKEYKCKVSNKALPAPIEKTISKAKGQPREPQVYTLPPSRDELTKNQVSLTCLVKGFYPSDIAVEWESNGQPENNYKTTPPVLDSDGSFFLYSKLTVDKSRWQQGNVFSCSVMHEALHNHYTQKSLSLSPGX
light: B4 light with F49Y
modifications: PNU-159682 linked through ethylenediamine to the C-terminal Gly of the GGGGSLPQTGG tag
Take B12: the “EC50 of in-vitro cytotoxicity” value in assay [5] came out at 3.3 ng/mL.

B13: hCL1d-LC-G2-PNU (antibody, human IgG1, kappa)
heavy: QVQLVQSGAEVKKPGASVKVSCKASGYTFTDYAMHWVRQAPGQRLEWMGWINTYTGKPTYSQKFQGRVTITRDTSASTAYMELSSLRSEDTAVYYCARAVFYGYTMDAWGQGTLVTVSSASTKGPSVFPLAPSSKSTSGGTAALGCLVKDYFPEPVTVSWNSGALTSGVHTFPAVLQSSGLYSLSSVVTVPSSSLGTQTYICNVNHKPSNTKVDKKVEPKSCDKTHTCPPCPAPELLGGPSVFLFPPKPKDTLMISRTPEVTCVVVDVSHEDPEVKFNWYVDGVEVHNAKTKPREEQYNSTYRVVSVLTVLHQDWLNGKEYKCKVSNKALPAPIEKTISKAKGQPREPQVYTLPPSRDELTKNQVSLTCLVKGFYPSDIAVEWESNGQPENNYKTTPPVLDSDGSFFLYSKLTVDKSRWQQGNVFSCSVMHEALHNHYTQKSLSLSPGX
light: B4 light with A25T, L33F, F49Y, K52N, N93K
modifications: PNU-159682 linked through ethylenediamine to the C-terminal Gly of the GGGGSLPQTGG tag
For B13, the “EC50 of in-vitro cytotoxicity” value in assay [5] came out at 11.6 ng/mL.
